According to patent publication US20240116985A1 (published 2024):
Read-outs that look alike come from different tables or passages of the source. Starred links: 1 amine or outer side, 2 acyl side, 3 side chain; linkers in the order of their positions; H or OH if unused. Positions of bridges follow the written chain, without caps; N, C: chain ends. Non-standard residues stand in square brackets, D forms with d. Primed or numbered codes have the meaning given here. B5(17) = 2,2-bis(4-pentenyl)glycine = 2-amino-2-(pent-4-en-1-yl)hept-6-enoic acid, stitching residue, C=CCCCC(CCCC=C)(N[*:1])C(=O)[*:2]; B5(4) = 2,2-bis(4-pentenyl)glycine = 2-amino-2-(pent-4-en-1-yl)hept-6-enoic acid (stitching residue), C=CCCCC(CCCC=C)(N[*:1])C(=O)[*:2]; TfeGA = (S)-2-amino-3-((carboxymethyl)(2,2,2-trifluoroethyl)amino)propanoic acid, O=C([C@H](CN(CC(=O)[*:3])CC(F)(F)F)N[*:1])[*:2]; PyrS2 = (S)-3-amino-1-((pent-4-en-1-yloxy)carbonyl)pyrrolidine-3-carboxylic acid, C=CCCCOC(=O)N1CC[C@@](N[*:1])(C(=O)[*:2])C1; B5(22) = 2-amino-2-(pent-4-en-1-yl)hept-6-enoic acid (two alkene side chains), C=CCCCC(CCCC=C)(N[*:1])C(=O)[*:2]; B5(3) = 2,2-bis(4-pentenyl)glycine (stitching residue), C=CCCCC(CCCC=C)(N[*:1])C(=O)[*:2]; Phe(2-Br) = N[C@@H](Cc1ccccc1Br)C(=O)O; Phe(2-Cl) = N[C@@H](Cc1ccccc1Cl)C(=O)O; Bta = N[C@@H](Cc1csc2ccccc12)C(=O)O; αAllylPro = C=CC[C@@]1(C(=O)O)CCCN1; tBuAla = CC(C)(C)C[C@H](N)C(=O)O; 3Thi = N[C@@H](Cc1ccsc1)C(=O)O; S8 = C=CCCCCCC[C@](C)(N)C(=O)O; hLeu = CC(C)CC[C@H](N)C(=O)O

T1: B-cat-Halo (beta-catenin HaloTag NanoBRET construct expressed in HEK293 cells) (UniProt P35222 1-781)
T1 sequence (looked up): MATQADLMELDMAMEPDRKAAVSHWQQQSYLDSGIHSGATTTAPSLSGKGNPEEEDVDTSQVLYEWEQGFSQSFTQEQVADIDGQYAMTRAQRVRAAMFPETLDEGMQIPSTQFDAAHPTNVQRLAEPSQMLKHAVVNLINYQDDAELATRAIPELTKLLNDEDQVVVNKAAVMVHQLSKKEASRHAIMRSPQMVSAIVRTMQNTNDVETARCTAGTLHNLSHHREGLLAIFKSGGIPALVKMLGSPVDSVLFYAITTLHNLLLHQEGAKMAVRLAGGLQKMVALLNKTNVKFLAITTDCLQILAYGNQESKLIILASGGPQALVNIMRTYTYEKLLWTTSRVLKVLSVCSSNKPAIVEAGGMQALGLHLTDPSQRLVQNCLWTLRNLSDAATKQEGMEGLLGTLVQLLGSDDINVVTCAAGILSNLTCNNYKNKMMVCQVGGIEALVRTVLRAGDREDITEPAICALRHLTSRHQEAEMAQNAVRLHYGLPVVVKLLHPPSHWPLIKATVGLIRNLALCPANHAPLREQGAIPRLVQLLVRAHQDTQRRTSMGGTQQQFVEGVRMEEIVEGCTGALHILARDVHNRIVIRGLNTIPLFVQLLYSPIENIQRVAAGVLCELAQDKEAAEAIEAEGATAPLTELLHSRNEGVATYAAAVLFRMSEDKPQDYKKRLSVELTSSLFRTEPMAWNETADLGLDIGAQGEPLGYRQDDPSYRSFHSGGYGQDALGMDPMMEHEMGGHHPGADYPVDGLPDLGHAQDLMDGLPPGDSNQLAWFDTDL

T2: full-length beta-Catenin (Uniprot ID P35222) (Homo sapiens (Human), UniProt P35222 1-781)
T2 construct: also called bCat; B-Catenin
T2 sequence: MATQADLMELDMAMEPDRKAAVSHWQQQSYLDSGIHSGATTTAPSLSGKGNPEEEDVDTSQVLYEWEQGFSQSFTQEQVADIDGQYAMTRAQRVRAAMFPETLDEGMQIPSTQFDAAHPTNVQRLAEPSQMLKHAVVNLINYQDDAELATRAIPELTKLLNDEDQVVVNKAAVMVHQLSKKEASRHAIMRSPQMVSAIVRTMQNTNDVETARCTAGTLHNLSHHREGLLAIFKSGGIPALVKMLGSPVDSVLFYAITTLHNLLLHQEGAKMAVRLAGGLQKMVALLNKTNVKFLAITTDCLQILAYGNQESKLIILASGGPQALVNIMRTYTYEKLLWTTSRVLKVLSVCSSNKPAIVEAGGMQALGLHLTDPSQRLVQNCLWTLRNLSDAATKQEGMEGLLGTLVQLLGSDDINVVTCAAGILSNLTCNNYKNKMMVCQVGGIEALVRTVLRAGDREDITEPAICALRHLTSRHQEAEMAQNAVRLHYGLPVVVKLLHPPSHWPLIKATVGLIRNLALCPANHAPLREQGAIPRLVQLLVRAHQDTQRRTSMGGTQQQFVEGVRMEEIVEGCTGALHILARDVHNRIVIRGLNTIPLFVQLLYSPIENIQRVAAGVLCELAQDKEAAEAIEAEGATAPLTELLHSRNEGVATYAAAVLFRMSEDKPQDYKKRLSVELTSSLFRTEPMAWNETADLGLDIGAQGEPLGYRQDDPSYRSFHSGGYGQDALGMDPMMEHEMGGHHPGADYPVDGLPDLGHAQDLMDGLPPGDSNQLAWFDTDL

T3: B-cat-Halo (beta-catenin HaloTag NanoBRET construct expressed in HEK293 cells) (UniProt P35222 1-781, HaloTag NanoBRET 618 Ligand bound to the HaloTag)
T3 sequence (looked up): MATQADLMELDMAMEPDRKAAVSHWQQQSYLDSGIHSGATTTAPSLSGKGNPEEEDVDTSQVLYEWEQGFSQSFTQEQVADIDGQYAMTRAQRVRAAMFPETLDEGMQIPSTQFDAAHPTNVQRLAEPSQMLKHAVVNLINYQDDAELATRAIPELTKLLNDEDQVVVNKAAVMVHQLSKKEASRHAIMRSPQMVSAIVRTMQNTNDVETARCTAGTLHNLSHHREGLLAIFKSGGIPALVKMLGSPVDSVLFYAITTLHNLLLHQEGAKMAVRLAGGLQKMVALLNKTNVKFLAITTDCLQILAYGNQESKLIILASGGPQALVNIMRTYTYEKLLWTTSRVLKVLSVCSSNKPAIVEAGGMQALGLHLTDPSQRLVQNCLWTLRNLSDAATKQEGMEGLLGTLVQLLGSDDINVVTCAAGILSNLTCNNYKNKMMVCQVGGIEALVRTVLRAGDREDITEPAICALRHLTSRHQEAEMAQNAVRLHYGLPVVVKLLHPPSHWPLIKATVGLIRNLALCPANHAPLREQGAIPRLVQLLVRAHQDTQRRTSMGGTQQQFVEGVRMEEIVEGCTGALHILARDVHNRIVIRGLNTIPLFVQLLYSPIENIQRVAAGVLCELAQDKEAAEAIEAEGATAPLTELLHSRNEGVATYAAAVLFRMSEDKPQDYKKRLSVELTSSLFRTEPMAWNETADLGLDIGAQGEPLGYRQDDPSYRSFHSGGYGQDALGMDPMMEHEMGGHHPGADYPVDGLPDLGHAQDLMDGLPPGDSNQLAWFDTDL

T4: B-cat-Halo (beta-catenin HaloTag NanoBRET construct expressed in HEK293 cells) (UniProt P35222 1-781)
T4 sequence (looked up): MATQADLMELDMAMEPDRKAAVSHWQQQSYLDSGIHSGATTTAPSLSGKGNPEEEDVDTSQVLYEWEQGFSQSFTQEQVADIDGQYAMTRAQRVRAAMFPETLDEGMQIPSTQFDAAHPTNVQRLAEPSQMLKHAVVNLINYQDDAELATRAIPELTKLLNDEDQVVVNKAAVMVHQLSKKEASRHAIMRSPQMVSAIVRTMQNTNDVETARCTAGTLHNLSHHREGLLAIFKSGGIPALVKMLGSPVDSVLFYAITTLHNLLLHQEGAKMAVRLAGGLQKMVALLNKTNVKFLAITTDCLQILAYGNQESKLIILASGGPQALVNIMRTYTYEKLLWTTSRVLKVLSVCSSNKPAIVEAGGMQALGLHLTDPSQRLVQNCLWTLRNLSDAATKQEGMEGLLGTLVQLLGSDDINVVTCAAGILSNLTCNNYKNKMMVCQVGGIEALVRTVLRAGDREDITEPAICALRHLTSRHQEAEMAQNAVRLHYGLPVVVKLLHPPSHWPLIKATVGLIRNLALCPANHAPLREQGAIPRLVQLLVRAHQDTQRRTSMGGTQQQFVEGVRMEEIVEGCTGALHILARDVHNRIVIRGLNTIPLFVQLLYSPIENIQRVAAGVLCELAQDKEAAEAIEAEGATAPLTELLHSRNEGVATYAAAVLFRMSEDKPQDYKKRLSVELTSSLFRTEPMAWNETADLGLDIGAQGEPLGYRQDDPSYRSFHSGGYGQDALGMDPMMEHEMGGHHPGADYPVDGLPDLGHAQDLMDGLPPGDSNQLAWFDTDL


Legend:
[1] = biological target: T1, B-cat-Halo (beta-catenin HaloTag …); experiment: cell-based or functional assay
[2] = biological target: T2, full-length beta-Catenin (Uniprot ID …); experiment: fluorescence polarization competition; full-length beta-catenin with 5FAM-labeled TCF4 residues 10-53 probe as competitor
Procedure: The plate was incubated protected from light for 60 minutes at 20° C. prior to read. Reads were performed on a CLARIOstar plate reader (BMG Labtech) in duplicate, and data were fitted to a 1:1 binding model with hill slope using an in-house script. All provided concentrations are final concentrations.

[3] = biological target: T3, B-cat-Halo (beta-catenin HaloTag …); experiment: cell-based or functional assay
[4] = biological target: T4, B-cat-Halo (beta-catenin HaloTag …); experiment: cell-based or functional assay; remark: listed apart in the source

Row | Binder | NanoBRET Abs IC50 [1] | other results
1 | Ac-[αAllylPro]D[hLeu][B5(4)]DDAAFN[S8]F[Bta]Q-NH2 (staple 1-4, 4-11; not fully specified) [I-548] | 15.6 µM | –
2 | Ac-[αAllylPro]D[tBuAla][B5(4)]DEAAFQ[S8]F[Bta]Q-NH2 (staple 1-4, 4-11) [I-544] | 4.6 µM | –
3 | Ac-[αAllylPro]D[hLeu][B5(4)]DEAAFQ[S8]F[Bta]Q-NH2 (staple 1-4, 4-11) [I-545] | 3.5 µM | –
4 | Ac-[αAllylPro]DI[B5(17)]DEAAFN[S8]F[Bta]Q-NH2 (staple 1-4, 4-11) [I-557] | 16.9 µM | IC50 [2]: 0.035 µM
5 | Ac-[αAllylPro]D[tBuAla][B5(22)]D[TfeGA]AAFN[S8][Phe(2-Br)][Bta]Q-NH2 (staple 1-4, 4-11) [I-932] | – | NanoBRET Abs IC50 [3]: 11.4 µM
6 | Ac-[αAllylPro]D[tBuAla][B5(4)]DDAAFN[S8]F[Bta]Q-NH2 (staple 1-4, 4-11) [I-546] | 12.1 µM | –
7 | AzAc-[αAllylPro]D[tBuAla][B5(4)]D[TfeGA]AAFN[PyrS2][3Thi][Bta]Q-NH2 (staple 1-4, 4-11; not fully specified) [I-1054] | – | NanoBRET Abs IC50 [4]: > 20 µM
8 | Ac-[αAllylPro]D[tBuAla][B5(3)]D[TfeGA]AAFT[S8][Phe(2-Cl)][Bta]Q-NH2 (staple 1-4, 4-11) [I-930] | – | NanoBRET Abs IC50 [3]: 13.5 µM
